The values below come from US6730301.

Experiment in all cases: cell-based or functional assay
For test [1], the target named is MCP-1RB (monocyte chemoattractant protein-1 receptor B) (human) (UniProt P41597).
In test [2] the target is MIP-1α/RANTES receptor (Homo sapiens (Human)) (UniProt P32246).
The target in another test is T1, MIP-1α/RANTES receptor (Homo sapiens (Human), UniProt P32246 1-355).
T1 sequence: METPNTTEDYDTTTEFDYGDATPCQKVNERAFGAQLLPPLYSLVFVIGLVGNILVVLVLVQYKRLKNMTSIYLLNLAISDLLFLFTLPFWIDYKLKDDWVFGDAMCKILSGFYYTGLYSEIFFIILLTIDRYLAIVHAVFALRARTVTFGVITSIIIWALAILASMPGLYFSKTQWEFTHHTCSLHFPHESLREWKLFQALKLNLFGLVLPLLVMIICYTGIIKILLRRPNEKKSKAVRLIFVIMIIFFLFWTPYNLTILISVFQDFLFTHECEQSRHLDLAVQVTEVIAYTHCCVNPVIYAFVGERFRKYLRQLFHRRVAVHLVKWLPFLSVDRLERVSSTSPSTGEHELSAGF

MCP-1RB (monocyte chemoattractant protein-1 receptor B) (human), sequence (P41597 other isoform, or with tags, fused parts or gaps): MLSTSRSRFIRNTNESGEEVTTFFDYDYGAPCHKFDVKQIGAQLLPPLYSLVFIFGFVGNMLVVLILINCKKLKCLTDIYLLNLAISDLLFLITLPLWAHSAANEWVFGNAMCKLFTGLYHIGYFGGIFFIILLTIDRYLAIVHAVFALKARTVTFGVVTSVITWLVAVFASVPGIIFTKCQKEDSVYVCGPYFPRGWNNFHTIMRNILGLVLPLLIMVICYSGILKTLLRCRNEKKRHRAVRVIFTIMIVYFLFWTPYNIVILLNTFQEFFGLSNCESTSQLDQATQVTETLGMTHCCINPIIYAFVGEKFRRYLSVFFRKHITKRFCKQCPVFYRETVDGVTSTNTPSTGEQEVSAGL

Regarding “IL-8 (interleukin-8) (from UniProt P10145 28-99) (ligand)”, the IC50, Inhibition of Adenylyl Cyclase in test [1] was over 1000 nM.
On to “Gro-α (from UniProt P09341 35-107) (ligand)”, for which the IC50, Inhibition of Adenylyl Cyclase in test [1] and in test [2] was over 1000 nM each time.

B1: MIP-1α (ligand, UniProt P10147 27-92, looked up)
chain: ADTPTACCFSYTSRQIPQNFIADYFETSSQCSKPGVIFLTKRSRQVCADPSEEWVQKYVSDLELSA
In test [1], B1 gave an IC50, Inhibition of Adenylyl Cyclase of over 1000 nM. For the same molecule, in the test with MIP-1α/RANTES receptor, the “IC50, Inhibition of Adenylyl Cyclase” value came to 0.11 nM and the “Selectivity (against MCP-1RB), inhibition of adenylyl cyclase” value is over 9000 fold.

B2: RANTES (ligand, UniProt P13501 24-91, looked up)
chain: SPYSSDTTPCCFAYIARPLPRAHIKEYFYTSGKCSNPAVVFVTRKNRQVCANPEKKWVREYINSLEMS
In the case of B2, the IC50, Inhibition of Adenylyl Cyclase was over 1000 nM in test [1] and 0.14 nM with MIP-1α/RANTES receptor. The “Selectivity (against MCP-1RB), inhibition of adenylyl cyclase” value with MIP-1α/RANTES receptor is over 7000 fold.

B3: MIP-1β (ligand, UniProt P13236 24-92, looked up)
chain: APMGSDPPTACCFSYTARKLPRNFVVDYYETSSLCSQPAVVFQTKRSKQVCADPSESWVQEYVYDLELN
On to B3, for which the IC50, Inhibition of Adenylyl Cyclase in test [1] was over 1000 nM; in the test with MIP-1α/RANTES receptor it was 10 nM. Further, the “Selectivity (against MCP-1RB), inhibition of adenylyl cyclase” value with MIP-1α/RANTES receptor was over 100 fold.
